From publication PMC7225057 (Journal of molecular biology, 2020)

Target: FITC-sCT(22–32) (salmon, FITC label)
Assay: fluorescence polarisation

B1: RAMP1-CTR.34–141 WT (tethered RAMP1-CTR ECD fusion, AMY1 receptor ECD) (receptor)
chain: TTACQEANYGALLRELCLTQFQVDMEAVGETLWCDWGRTIRSYRELADCTWHMAEKLGCFWPNAEVDRFFLAVHGRYFRSCPISGRAVIEPKPFLYVVGRKKMMDAQYKCYDRMQQLPAYQGEGPYCNRTWDGWLCWDDTPAGVLSYQFCPDYFPDFDPSEKVTKYCDEKGVWFKHPENNRTWSNYTMCNAFTPEK
modifications: N-glycosylated (HEK293S GnTI−, enzyme treatment: none)
- Kd: 280 nM
- pKD: 6.56
